Reference: paper PMC6309729 (Biochemistry, 2011)
Where a chain is given by its changes, count along the chain named. Numbers in names are those of the source. Where two headings read alike, the source gives them in different places.

T1: cpSRP54 (chloroplast SRP54), wildtype (Arabidopsis thaliana, UniProt P37107 76-564)
T1 sequence (looked up): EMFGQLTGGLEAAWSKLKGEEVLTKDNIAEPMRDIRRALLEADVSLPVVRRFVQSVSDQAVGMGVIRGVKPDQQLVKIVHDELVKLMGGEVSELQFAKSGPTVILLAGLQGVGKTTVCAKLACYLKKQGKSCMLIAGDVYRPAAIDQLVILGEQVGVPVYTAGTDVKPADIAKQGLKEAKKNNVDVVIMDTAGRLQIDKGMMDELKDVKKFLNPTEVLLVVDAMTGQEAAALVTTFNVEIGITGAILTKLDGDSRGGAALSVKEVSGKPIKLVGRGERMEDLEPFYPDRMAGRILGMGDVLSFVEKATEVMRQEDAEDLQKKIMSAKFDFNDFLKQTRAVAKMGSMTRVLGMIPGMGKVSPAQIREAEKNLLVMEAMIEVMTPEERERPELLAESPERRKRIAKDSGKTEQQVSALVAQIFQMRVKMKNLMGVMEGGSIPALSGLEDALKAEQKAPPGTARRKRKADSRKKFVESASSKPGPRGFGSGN

B1: cpFtsY (chloroplast SRP receptor), wildtype (natural protein, UniProt O80842 41-366, looked up)
chain: CSAGPSGFFTRLGRLIKEKAKSDVEKVFSGFSKTRENLAVIDELLLFWNLAETDRVLDELEEALLVSDFGPKITVRIVERLREDIMSGKLKSGSEIKDALKESVLEMLAKKNSKTELQLGFRKPAVIMIVGVNGGGKTTSLGKLAHRLKNEGTKVLMAAGDTFRAAASDQLEIWAERTGCEIVVAEGDKAKAATVLSKAVKRGKEEGYDVVLCDTSGRLHTNYSLMEELIACKKAVGKIVSGAPNEILLVLDGNTGLNMLPQAREFNEVVGITGLILTKLDGSARGGCVVSVVEELGIPVKFIGVGEAVEDLQPFDPEAFVNAIFS
B2: cpFtsY(A169L) (natural protein)
chain: B1 chain with A167L
modifications: GTP/GMPPNP-Mg2+ state. Paper numbering + 38 = precursor (motif D163-x-F165-R166-A167-A168-A169), anchored on the named residues
B3: cpFtsY(A169W) (natural protein)
chain: B1 chain with A167W
modifications: GTP/GMPPNP-Mg2+ state. Paper numbering + 38 = precursor
B4: cpSRP54(A143L) (natural protein)
chain: MFGQLTGGLEAAWSKLKGEEVLTKDNIAEPMRDIRRALLEADVSLPVVRRFVQSVSDQAVGMGVIRGVKPDQQLVKIVHDELVKLMGGEVSELQFAKSGPTVILLAGLQGVGKTTVCAKLACYLKKQGKSCMLIAGDVYRPALIDQLVILGEQVGVPVYTAGTDVKPADIAKQGLKEAKKNNVDVVIMDTAGRLQIDKGMMDELKDVKKFLNPTEVLLVVDAMTGQEAAALVTTFNVEIGITGAILTKLDGDSRGGAALSVKEVSGKPIKLVGRGERMEDLEPFYPDRMAGRILGMGDVLSFVEKATEVMRQEDAEDLQKKIMSAKFDFNDFLKQTRAVAKMGSMTRVLGMIPGMGKVSPAQIREAEKNLLVMEAMIEVMTPEERERPELLAESPERRKRIAKDSGKTEQQVSALVAQIFQMRVKMKNLMGVMEGGSIPALSGLEDALKAEQKAPPGTARRKRKADSRKKFVESASSKPGPRGFGSGN
modifications: GTP/GMPPNP-Mg2+ state. Paper numbering + 76 = precursor (Met77 = 1, taken as the NdeI start)
B5: cpSRP54(A143W) (natural protein)
chain: B4 chain with L143W
modifications: GTP/GMPPNP-Mg2+ state. Paper numbering + 76 = precursor

Tests used:
[1] = molecular target: T1, cpSRP54 (chloroplast SRP54), wildtype; assay: cell-based or functional assay
[2] = molecular target: T1, cpSRP54 (chloroplast SRP54), wildtype; assay: GTPase inhibition assay
[3] = molecular target: T1, cpSRP54 (chloroplast SRP54), wildtype; assay: GTPase inhibition assay; remark: listed apart in the source
[4] = molecular target: B1; assay: cell-based or functional assay
[5] = molecular target: B1; assay: GTPase inhibition assay
[6] = molecular target: B1; assay: GTPase inhibition assay; remark: listed apart in the source

kcat/Km of the reciprocally stimulated GTPase reaction [1] [M⁻¹ s⁻¹]	Ki [2] [µM]	Ki [3] [µM]	kcat/Km of the reciprocally stimulated GTPase reaction [4] [M⁻¹ s⁻¹]	Ki [5] [µM]	Ki [6] [µM]	Binder
300000	–	–	–	–	–	B1
517	> 40	–	–	–	–	B2
467	> 40	> 50	–	–	–	B3
–	–	–	200	> 40	–	B4
–	–	–	617	> 40	> 50	B5
